{"source": "paper PMC12808100", "about": "(Nature Communications, 2025)", "key": {"[1]": {"molecular_target": "T1, His6-AviTag-MBP-TEV-POLE2 (human, UniProt P56282 1-527, biotin on the AviTag (BirA co-expressed, biotin in the medium))", "T1 construct": "POLE2, residues 1-527; a TEV site lies between MBP and POLE2; also called His6-avi-MBP-tagged POLE2; avi-His6-MBP-POLE2; source: E. coli BL21(DE3), co-expressed with BirA, purified (HisTrap, MBPtrap, Q HP); not shown: His6, N-terminal, kept; AviTag, N-terminal, kept; MBP, N-terminal, kept", "T1 sequence (P56282 whole entry, the tested form may be a part)": "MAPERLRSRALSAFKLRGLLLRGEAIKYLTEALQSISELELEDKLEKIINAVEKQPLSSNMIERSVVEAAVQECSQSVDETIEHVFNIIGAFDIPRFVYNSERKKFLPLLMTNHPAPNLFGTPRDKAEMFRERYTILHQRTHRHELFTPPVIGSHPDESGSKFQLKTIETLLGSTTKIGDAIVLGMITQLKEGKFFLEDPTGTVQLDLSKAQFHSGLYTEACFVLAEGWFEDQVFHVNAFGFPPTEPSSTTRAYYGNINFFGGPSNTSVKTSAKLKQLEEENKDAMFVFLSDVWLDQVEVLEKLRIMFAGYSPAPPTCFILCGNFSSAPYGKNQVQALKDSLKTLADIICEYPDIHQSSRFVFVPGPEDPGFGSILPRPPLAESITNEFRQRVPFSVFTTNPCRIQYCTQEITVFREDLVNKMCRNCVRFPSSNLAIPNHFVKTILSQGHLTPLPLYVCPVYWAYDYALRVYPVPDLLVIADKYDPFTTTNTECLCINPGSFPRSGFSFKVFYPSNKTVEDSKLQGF", "assay": "fluorescence polarisation; direct; dilution series of MBP-POLE2 added to 50 nM fluoDONSON peptide; 20 mM Hepes pH 7.5, 150 mM NaCl, 0.5 mM TCEP, 0.01% Tween 20", "conditions": "both partners purified"}, "[2]": {"molecular_target": "T1, His6-AviTag-MBP-TEV-POLE2", "assay": "native holdup (nHU) titration with dot blot; purified His6-avi-MBP-tagged POLE2 as bait on resin; extracts of HEK293T cells transfected with HA-tagged full length proteins; 4 °C, 2 h; anti-HA dot blot; apparent", "conditions": "one partner purified"}, "[3]": {"molecular_target": "T1, His6-AviTag-MBP-TEV-POLE2", "assay": "fluorescence polarisation; competitive; dilution series of the non-fluorescent DONSON peptide added to 50 nM fluoDONSON and 3.85 μM POLE2 protein; same buffer as the direct experiment", "conditions": "both partners purified"}, "HA-POLE2": {"molecular_target": "T2, HA-POLE2 (human, UniProt P56282 1-527)", "T2 construct": "POLE2, residues 1-527; also called HA-POLE2 wild type; source: HEK293T, transfected, in cell extract; not shown: HA, N-terminal, kept", "T2 sequence (P56282 whole entry, the tested form may be a part)": "as above", "assay": "native holdup (nHU) titration with dot blot; DONSON_71-88-saturated streptavidin resin mixed with control resin at various proportions; extracts of HEK293T cells expressing HA-tagged POLE2 variants; 4 °C, 2 h; depletion quantified with an antibody against the HA tag; apparent", "conditions": "one partner purified"}}, "note": "*: point of attachment. carboxyfluorescein = carboxyfluorescein on the N-terminus (no linker); Biotin = O=C1N[C@H]2[C@H](CS[C@H]2CCCCC(=O)*)N1; TTDS = Trioxatridecan-succinamic acid linker", "data": [{"binder": "carboxyfluorescein-GPAAARRNPFARLDNRPR-NH2 (DONSON, residues 71-88; also called fluorescein-labeled DONSON_71-88 peptide; fluorescent NPF motif peptide; source: synthetic peptide, HPLC purified)", "note": "[fluoDONSON peptide (residues 71-88)]", "values": [{"measurement": "Kd", "setting": "[1]", "result": 16, "unit": "µM"}]}, {"binder": "HA-TTF2, full length, N-terminal NPF motif mutated to KAF (natural protein, human, UniProt Q9UNY4 1-1162, looked up, TTF2, residues 1-1162; only the N-terminal NPF motif mutated; also called TTF2 mutant; source: HEK293T, transfected, in cell extract; not shown: HA, N-terminal, kept) MEEVRCPEHGTFCFLKTGVRDGPNKGKSFYVCRADTCSFVRATDIPVSHCLLHEDFVVELQGLLLPQDKKEYRLFFRCIRSKAEGKRWCGSIPWQDPDSKEHSVSNKSQHASETFHHSSNWLRKAFKVLDKNQEPALWKQLIKGEGEEKKADKKQREKGDQLFDQKKEQKPEMMEKDLSSGLVPKKKQSVVQEKKQEEGAEIQCEAETGGTHKRDFSEIKSQQCQGNELTRPSASSQEKSSGKSQDVQRESEPLREKVTQLLPQNVHSHNSISKPQKGGPLNKEYTNWEAKETKAKDGPSIQATQKSLPQGHFQERPETHSVPAPGGPAAQAAPAAPGLSLGEGREAATSSDDEEEDDVVFVSSKPGSPLLFDSTLDLETKENLQFPDRSVQRKVSPASGVSKKVEPSDPVARRVYLTTQLKQKKSTLASVNIQALPDKGQKLIKQIQELEEVLSGLTLSPEQGTNEKSNSQVPQQSHFTKTTTGPPHLVPPQPLPRRGTQPVGSLELKSACQVTAGGSSQCYRGHTNQDHVHAVWKITSEAIGQLHRSLESCPGETVVAEDPAGLKVPLLLHQKQALAWLLWRESQKPQGGILADDMGLGKTLTMIALILTQKNQEKKEEKEKSTALTWLSKDDSCDFTSHGTLIICPASLIHHWKNEVEKRVNSNKLRVYLYHGPNRDSRARVLSTYDIVITTYSLVAKEIPTNKQEAEIPGANLNVEGTSTPLLRIAWARIILDEAHNVKNPRVQTSIAVCKLQACARWAVTGTPIQNNLLDMYSLLKFLRCSPFDEFNLWRSQVDNGSKKGGERLSILTKSLLLRRTKDQLDSTGRPLVILPQRKFQLHHLKLSEDEETVYNVFFARSRSALQSYLKRHESRGNQSGRSPNNPFSRVALEFGSEEPRHSEAADSPRSSTVHILSQLLRLRQCCCHLSLLKSALDPMELKGEGLVLSLEEQLSALTLSELRDSEPSSTVSLNGTFFKMELFEGMRESTKISSLLAELEAIQRNSASQKSVIVSQWTNMLKVVALHLKKHGLTYATIDGSVNPKQRMDLVEAFNHSRGPQVMLISLLAGGVGLNLTGGNHLFLLDMHWNPSLEDQACDRIYRVGQQKDVVIHRFVCEGTVEEKILQLQEKKKDLAKQVLSGSGESVTKLTLADLRVLFGI", "values": [{"measurement": "fold weaker affinity than the wild type", "setting": "[2]", "result": "~4", "unit": "fold"}]}, {"binder": "{Biotin-TTDS}-GPAAARRNPFARLDNRPR-NH2 (Protein downstream neighbor of Son (DONSON), residues 71-88; also called DONSON_71-88; DONSON NPF motif; source: synthetic peptide (ABI 443 A synthesizer, Fmoc), HPLC purified)", "note": "[NPF motif peptide of DONSON (residues 71-88)]", "values": [{"measurement": "Kd", "setting": "[3]", "result": 13, "unit": "µM"}, {"measurement": "Kd", "setting": "HA-POLE2", "result": 0.28, "unit": "µM"}]}, {"binder": "HA-ERCC6L, full length, NPF motif mutated to KAF (natural protein, human, UniProt Q2NKX8 1-1250, looked up, ERCC6L, residues 1-1250; also called mutated version of ERCC6L; source: HEK293T, transfected, in cell extract; not shown: HA, N-terminal, kept) MEASRRFPEAEALSPEQAAHYLRYVKEAKEATKNGDLEEAFKLFNLAKDIFPNEKVLSRIQKIQEALEELAEQGDDEFTDVCNSGLLLYRELHNQLFEHQKEGIAFLYSLYRDGRKGGILADDMGLGKTVQIIAFLSGMFDASLVNHVLLIMPTNLINTWVKEFIKWTPGMRVKTFHGPSKDERTRNLNRIQQRNGVIITTYQMLINNWQQLSSFRGQEFVWDYVILDEAHKIKTSSTKSAICARAIPASNRLLLTGTPIQNNLQELWSLFDFACQGSLLGTLKTFKMEYENPITRAREKDATPGEKALGFKISENLMAIIKPYFLRRTKEDVQKKKSSNPEARLNEKNPDVDAICEMPSLSRKNDLIIWIRLVPLQEEIYRKFVSLDHIKELLMETRSPLAELGVLKKLCDHPRLLSARACCLLNLGTFSAQDGNEGEDSPDVDHIDQVTDDTLMEESGKMIFLMDLLKRLRDEGHQTLVFSQSRQILNIIERLLKNRHFKTLRIDGTVTHLLEREKRINLFQQNKDYSVFLLTTQVGGVGLTLTAATRVVIFDPSWNPATDAQAVDRVYRIGQKENVVVYRLITCGTVEEKIYRRQVFKDSLIRQTTGEKKNPFRYFSKQELRELFTIEDLQNSVTQLQLQSLHAAQRKSDIKLDEHIAYLQSLGIAGISDHDLMYTCDLSVKEELDVVEESHYIQQRVQKAQFLVEFESQNKEFLMEQQRTRNEGAWLREPVFPSSTKKKCPKLNKPQPQPSPLLSTHHTQEEDISSKMASVVIDDLPKEGEKQDLSSIKVNVTTLQDGKGTGSADSIATLPKGFGSVEELCTNSSLGMEKSFATKNEAVQKETLQEGPKQEALQEDPLESFNYVLSKSTKADIGPNLDQLKDDEILRHCNPWPIISITNESQNAESNVSIIEIADDLSASHSALQDAQASEAKLEEEPSASSPQYACDFNLFLEDSADNRQNFSSQSLEHVEKENSLCGSAPNSRAGFVHSKTCLSWEFSEKDDEPEEVVVKAKIRSKARRIVSDGEDEDDSFKDTSSIKAFNTSLFQFSSVKQFDASTPKNDISPPGRFFSSQIPSSVNKSMNSRRSLASRRSLINMVLDHVEDMEERLDDSSEAKGPEDYPEEGVEESSGEASKYTEEDPSGETLSSENKSSWLMTSKPSALAQETSLGAPEPLSGEQLVGSPQDKAAEATNDYETLVKRGKELKECGKIQEALNCLVKALDIKSADPEVMLLTLSLYKQLNNN", "values": [{"measurement": "fold weaker affinity than the wild type", "setting": "[2]", "result": 10, "unit": "fold"}]}]}
